Test system: MS2 coat protein
Assay: apparent KD of MS2 coat protein; designed switch direction (-1 OFF switch, 1 ON switch): 1; higher = weaker reporter binding
Procedure, shortened: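 Normalised cluster fluorescence was curve-fitted, and each design's median over clusters is its apparent KD. Before this, SNAP-549-labelled MS2 coat protein was titrated from 0.7 or 1.5 nM, doubling to 3 µM, over RNA switches transcribed on Illumina chips by stalled E. coli RNA polymerase. Titrations had no input, 200 uM small-molecule ligand, or an oligonucleotide input, and steps lasted 0.8–1.5 h (lowest) to 10–20 min (highest).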

[1] = input ligand: microRNA oligo, concentration not stated

Sequence | apparent KD of MS2 coat protein (input ligand: FMN 200 uM) | apparent KD of MS2 coat protein [1] | apparent KD of MS2 coat protein (input ligand: none)
GGACGUCGAUCUCCUACUUAAACAUGAGGAUCACCCAUGUCACAGGAUAUGAGUCCGAUUAGGACUCAGAAGGGUGCGACGUCC [Fiskers NG3ss - 51] (Eterna round: R96, puzzle: Same State NG 3) | 14 nM | 12.3 nM | 18.6 nM
UUGCUCGUGUGAGGAUAUGCCGCCGUUUCGGCUGCAGAAGGUACUACGUUACAUGAGGAUCACCCAUGUCUCUGUUGUUUCGUG [salish99_SSNG1_r04_940] (Eterna round: R96, puzzle: Same State NG 1) | 18.1 nM | 13.9 nM | 16.5 nM
AUUGUUAAUGCAGGAUAUGAUUAACAUGAGGAUCACCCAUGUGGUGUUGUGAGUAAGGAGAGUGAUCAGAAGGGCAUUUUUUUU [JMF's solution 31] (Eterna round: R96, puzzle: Same State NG 2) | 826 nM | 810 nM | 616 nM
AUAAGAAACACAGGAUAUACCGCACUUAACGCGGUAGAAGGGUGGGACAUGAGGAUCACCCAUGUGGCCCGGGCGCCGGACCGC [Edquzative] (Eterna round: R96, puzzle: Same State NG 1) | 556 nM | 10 nM | 122 nM
UUAAUAAUGAUAGGAUAUACAUGAGGAAUCCUCGUAGAAGGAUCAUGACAUGAGGAUCACCCAUGUAACGCUCAGAAGAGCGUA [Mat - Same State NG 1 - JL mod - D43] (Eterna round: R96, puzzle: Same State NG 1) | 738 nM | 30.9 nM | 516 nM
GCGAGCGUACUUGCAGACAUGAGGAUCACCCAUGUAACUGGACAGGAUAUGGUACCGUUUCGGUACCAGAAGGGUUUAUCAUGU [JL SSNG3 3.55] (Eterna round: R96, puzzle: Same State NG 3) | 167 nM | 140 nM | 193 nM
GUAGCAUACCGAGGAUAUUCAAAUUAACAUGAGGAUCACCCAUGUAGGCCACAUUAGUGGCCUUGGGAGAAGGCGGAAUGCUAC [Xeonanis - 20 Mod39] (Eterna round: R96, puzzle: Same State NG 2) | 13.3 nM | 43.1 nM | 60.7 nM
GGAUCGGAGGCAGGAUAUGGGCUCAGAACAUGAGGAUCACCCAUGUAAAACGGCGCAAUGCGCCACCAGAAGGGCCUCCAGUCG [Esussoed] (Eterna round: R96, puzzle: Same State NG 2) | 13.2 nM | 25.7 nM | 44.1 nM
AAACACAUGAGGAUCACCCAUGUAGCACCAUUGAGGCGCACAUAGGAUAUCCGGUCCAAAAGACCGGAGAAGGGUGAAAGAAAA [Veandi] (Eterna round: R96, puzzle: Same State NG 3) | 59.7 nM | 371 nM | 328 nM
GAGUGGCAGUAAGGAUAUAUAAUGAUAAUCACAGUAGAAGGUACUGACAUGAGGAUCACCCAUGUAGGACUAAACCAGAGAGAG [Parity 43 - Jieux - Same State NG 1] (Eterna round: R96, puzzle: Same State NG 1) | 33.8 nM | 20.2 nM | 20.1 nM
GCUGCAAGGGCAGGAUAUGGGUUCAGAGCGGAAGUGCGCUUUGAUACAUGAGGAUCACCCAUGUCCCAGAAGGGCCCAUGCGGC [Arredibi] (Eterna round: R96, puzzle: Same State NG 2) | 19.1 nM | 78.4 nM | 113 nM
GGUACUAACACAGGAUAUGCUAUCCUUUGGGUAGCAGAAGGGUGGUACAUGAGGAUCACCCAUGUGGUGCCAGGGCGUGAGCCC [JL SSNG1 1.96] (Eterna round: R96, puzzle: Same State NG 1) | 408 nM | 538 nM | 659 nM
